Test results from publication PMC4426631, “Insect antimicrobial peptides show potentiating functional interactions against Gram-negative bacteria” (Proceedings of the Royal Society B: Biological Sciences, 2015).
Cf = 5(6)-carboxyfluorescein

The binders below were run against T1, DnaK–BHQ10 (E. coli chaperone DnaK labelled with Black Hole Quencher 10) (E. coli, UniProt P0A6Y8 1-638, BHQ10 (from BHQ10-NHS-ester), labelling ratio 1 : 9 DnaK : BHQ10) (assay: FRET or BRET; FRET-based quenching assay in solution: fluorescein-modified peptide (50 μl, 1.3 nmol/l) mixed with a serial dilution of DnaK–BHQ10 (50 μl, 0.8–13 000 nmol/l, 1 : 4 series) in modifying buffer (20 mmol/l Na2HPO4, 20 mmol/l KH2PO4, 5 mmol/l MgCl2, 150 mmol/l KCl, pH 7.4), black 384-well plate, 2 h; Kd by non-linear regression (dose-response logistical function, SlideWrite) of quenching against DnaK …). Settings: both partners purified.
T1 construct: chaperone DnaK of Escherichia coli; also called bacterial DnaK; quencher-labelled bacterial DnaK probe; source: produced by Michael Zahn [50]; dialysed and labelled with BHQ10-NHS-ester
T1 sequence (P0A6Y8 whole entry): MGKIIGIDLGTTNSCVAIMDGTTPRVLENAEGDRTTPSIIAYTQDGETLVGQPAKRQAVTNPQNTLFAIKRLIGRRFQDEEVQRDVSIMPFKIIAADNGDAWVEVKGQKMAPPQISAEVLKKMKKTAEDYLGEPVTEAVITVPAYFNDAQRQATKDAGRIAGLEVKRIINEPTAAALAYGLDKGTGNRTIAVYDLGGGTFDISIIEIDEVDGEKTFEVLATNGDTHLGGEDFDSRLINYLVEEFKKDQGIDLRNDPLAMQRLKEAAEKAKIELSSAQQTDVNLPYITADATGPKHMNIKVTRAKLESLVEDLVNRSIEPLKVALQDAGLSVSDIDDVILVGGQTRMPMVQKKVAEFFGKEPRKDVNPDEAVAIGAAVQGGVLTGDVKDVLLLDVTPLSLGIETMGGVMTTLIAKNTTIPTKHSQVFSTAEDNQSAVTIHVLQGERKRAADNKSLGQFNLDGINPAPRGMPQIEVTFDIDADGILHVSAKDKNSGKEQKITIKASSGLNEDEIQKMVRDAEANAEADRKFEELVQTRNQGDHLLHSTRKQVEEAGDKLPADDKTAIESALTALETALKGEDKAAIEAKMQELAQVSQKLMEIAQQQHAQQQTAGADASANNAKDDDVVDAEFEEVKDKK

Binder	Kd [µM]
Cf-HRHQGPIFDTRPSPFNPNQPRPGPIY-NH2 (metchnikowin 1 of Drosophila melanogaster; source: synthetic peptide (PANATecs, Tübingen), purified to >95%) [Metchnikowin-1 (P4), Drosophila melanogaster, Cf-[residues removed]-NH2]	> 5
Cf-VDKPDYRPRPRPPNM-NH2 (metalnikowin I of Palomena prasina; source: synthetic peptide (PANATecs, Tübingen), purified to >95%) [Metalnikowin I (P1), Palomena prasina, Cf-VDKPDYRPRPRPPNM-NH2]	> 5
Cf-FVPYNPPRPGQSKPFPSFPGHGPFNPKIQWPYPLPNPGH-NH2 (abaecin of Bombus pascuorum, 39 residues; also called B. pascuorum abaecin; source: synthetic peptide (PANATecs, Tübingen), purified to >95%) [Abaecin (P3), Bombus pascuorum, Cf-[residues removed]-NH2]	0.19 ± 0.03
Cf-HRRQGPIFDTRPSPFNPNQPRPGPIY-NH2 (metchnikowin 2 of Drosophila melanogaster; source: synthetic peptide (PANATecs, Tübingen), purified to >95%) [Metchnikowin-2 (P5), Drosophila melanogaster, Cf-[residues removed]-NH2]	> 5
Cf-VDKPDYRPRPWPRPN-NH2 (metalnikowin IIA of Palomena prasina; source: synthetic peptide (PANATecs, Tübingen), purified to >95%) [Metalnikowin IIA (P2), Palomena prasina, Cf-VDKPDYRPRPWPRPN-NH2]	> 5
